In US20230242922:

Tests used:
Test in all cases: cell_activity
[1] = tested on: T1, AN197 TALEN pair (synthetic construct); conditions: primary T cells, GCD
T1 sequence: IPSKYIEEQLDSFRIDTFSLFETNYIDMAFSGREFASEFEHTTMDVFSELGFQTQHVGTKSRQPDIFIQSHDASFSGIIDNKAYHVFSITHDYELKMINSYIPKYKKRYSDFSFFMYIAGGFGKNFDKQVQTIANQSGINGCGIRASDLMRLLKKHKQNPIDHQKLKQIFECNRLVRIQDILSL

[2] = tested on: T2, AN197 TALEN, purified, mPEG-5K-SH PEGylated (synthetic construct); conditions: HEK293FT
T2 sequence: T1 sequence

[3] = biological target: FokI TALEN pair (Flavobacterium okeanokoites) (UniProt P14870); conditions: by Sanger sequencing
Sequence of UniProt P14870 (P14870 384-579): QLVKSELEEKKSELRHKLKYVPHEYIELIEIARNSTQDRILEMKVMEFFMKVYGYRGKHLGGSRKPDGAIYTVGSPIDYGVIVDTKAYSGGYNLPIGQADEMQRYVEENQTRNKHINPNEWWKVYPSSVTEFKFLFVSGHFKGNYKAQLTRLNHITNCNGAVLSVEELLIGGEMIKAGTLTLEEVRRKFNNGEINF

PD-1 target
activity [1]: > 80 % editing

B2M target
activity [1]: > 80 % editing

LAG3 target
activity [1]: > 80 % editing

AAVS1 locus TALEN target
activity [2]: < 75 % editing
activity [1]: > 80 % editing
activity [3]: 100 % editing

TIM3 target
activity [1]: > 80 % editing
